# Test results reported in patent US20260008852A1 (CRYSTAL BIOSCIENCE, published 2026).
# Substitutions are numbered along the chain they refer to.
# T1: B7-H3 on CHO-K1 cells stably transfected with B7-H3 (GenScript #M00536) (UniProt Q5ZPR3 29-534, limits assumed)
# T1 sequence (looked up): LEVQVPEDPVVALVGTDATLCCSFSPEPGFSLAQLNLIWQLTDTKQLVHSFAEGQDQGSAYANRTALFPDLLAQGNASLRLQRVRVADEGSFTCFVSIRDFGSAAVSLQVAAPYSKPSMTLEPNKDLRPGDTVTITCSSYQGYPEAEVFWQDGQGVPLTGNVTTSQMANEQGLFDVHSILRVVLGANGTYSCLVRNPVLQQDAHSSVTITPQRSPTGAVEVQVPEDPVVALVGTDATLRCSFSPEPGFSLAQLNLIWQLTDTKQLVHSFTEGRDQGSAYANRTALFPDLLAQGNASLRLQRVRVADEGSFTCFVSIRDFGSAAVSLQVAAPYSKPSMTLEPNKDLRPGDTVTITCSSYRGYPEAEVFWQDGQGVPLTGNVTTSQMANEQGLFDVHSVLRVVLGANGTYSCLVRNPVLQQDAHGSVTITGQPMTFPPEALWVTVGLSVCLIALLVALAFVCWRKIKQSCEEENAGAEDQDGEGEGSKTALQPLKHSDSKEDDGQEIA
# B1: 40633p1.1.F2 IgG (antibody, V domains shown)
# VH: EVQLLESGGGLVQPGGSLRLSCVASGLTFNGFAMTWVRQAPGKGLEWVSGISWNSGSIYYADSVKGRFTISRDNSKNTVYLQMSSLRAEDTAIYYCAKNWNDYYNSMDVWGQGTTVTVSS
# VL: QSVLTQPPSASGTPGQRVTISCSGSRSNIGTKYVYWYQQFPGTAPKLLIYTTDRRPSGVPDRFSGSKSGTSASLAISGLQSEDEADYYCSAWDDRLNAWVFGGGTKLTVL
# B2: 40633p1.1.D11 IgG (antibody, V domains shown)
# VH: EVQLLESGGGLVQPGGSLRLSCAASGFTFRSYAMSWVRQAPGKGLEWVAYIGSSGGTTYYADSVKGRFTISRDNSKNTLYLQMNSLRAEDTAVYYCVKESYYYMDVWGQGTTVTVSS
# VL: QSVLTQPPSASGTPGQRVTISCSATISNIDINRVSWYQQLPGTAPKLLIFNSQRPSGVPDRFSGSKSGTSASLAISGLQSEDEADYYCATWDDSLNSWVFGGGTKLTVL
# B3: 40633p1.1.H11 IgG (antibody, V domains shown)
# VH: EVQLLESGGGLVQPGGSLRLSCAASGFTFSSYPMTWVRQAPGKGLEWVADINSGGGTTLYADAVKGRFTISRDNSKNIVYLQMNSLRGEDTAVYYCAKHLDYYSYGMDVWGQGTTVTVSS
# VL: QSVLTQPPSASGTPGQRVTISCSGVTSKIGSKYVHWYQQLPGTAPKLLIYRNFERPSGVPDRFSGSTSGTSASLAISGLQSEDEADYYCATWEGALNGWVFGGGTKLTVL
# B4: 40633p1.1.G7 IgG (antibody, V domains shown)
# VH: EVQLLESGGGLVQPGGSLRLSCAASGFTFSGSAMNWVRQAPGKGLEWVSAINSGGTTIYYADSVKGRFTVSRDNSKNTLYLQMNSLRAEDTAVYYCVKLDFYYGMDVWGEGTTVTVSS
# VL: QSVVTQPPSASGTPGQRVTVSCSGSSSNVGSKYVQWYQQLPGTAPKLLIYATDRRPSGVPDRFSGSKSGTSASLAISGLQSEDEADYYCASWDDSLNAWVFGGGTKLTVL
# B5: 40633p1.2.D1 IgG (antibody, V domains shown)
# VH: EVQLLESGGGLVQPGGSLRLSCAASGFTFDVYGMSWVRQAPGKGLEWVSAINWNGGSTYYADSVKGRFTISRDNSENTLYLQMNSLRAEDTAVYYCAKEKWKHFIYYGMDVWGQGTTVTVSS
# VL: QSVLTQPASASGTPGQTVSISCSGSSSNIDSNTANWYQQLPGTAPKLLIYSNNQRPSGVPDRFSGSKSDTSASLAISGLQSEDEGDYYCSAWDDNLNGWLFGGGTKLTVL
# B6: 40633p1.1.C11 IgG (antibody, V domains shown)
# VH: EVQLLESGGGLVQPGGSLRLSCAASGFTFSSYWMSWVRQAPGKGLEWVAGINRNGGTTYYADSVKGRFTISRDNSKNTLYLQMNSLRAEDTAVYYCARWNDYDIMDVWGQGTTVTVSS
# VL: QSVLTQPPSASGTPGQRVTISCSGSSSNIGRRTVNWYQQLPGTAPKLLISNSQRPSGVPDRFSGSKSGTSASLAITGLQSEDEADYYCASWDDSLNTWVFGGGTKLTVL
# B7: 40633p1.1.E4 IgG (antibody, V domains shown)
# VH: B6 VH with A49S, N52S, R53S, N54S, G56S, T57A
# VL: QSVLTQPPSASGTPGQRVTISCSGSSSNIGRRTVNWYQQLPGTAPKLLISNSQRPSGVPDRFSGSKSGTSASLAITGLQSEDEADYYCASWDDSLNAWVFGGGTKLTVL
# B8: 40633p1.2.C11 IgG (antibody, V domains shown)
# VH: B6 VH with T57S, K76E, M83V
# VL: QSVLTQPSSASGTPGQRVTISCSGSSSNVGRRAVNWYQQLPGTAPKLLISNSQRPSGVPDRFSGSKSGTSASLAISGLQSEDEADYYCATWDASLNSWVFGGGTKLTVL
# B9: 40633p1.1.A7 IgG (antibody, V domains shown)
# VH: EVQLLESGGGLVQPGGSLRLSCAASGFTVSYYGMSWVRQAPGKGLEWVSAIKQDGSEKYYADSVKGRFTISRDNSKNTLYLQMNSLRAEDTAVYYCARHWNDYSNAMNVWGQGTTVTVSS
# VL: QSVLTQPPSASGTPGQRVTISCSGSTSNIGRESVYWYQQLPGTAPKLLIYTIDQRPSGVPDRFSGSKSGTSASLAISGLQSEDEAVYYCASWDASLNGWVFGGGTKLTVL
# B10: 40633p1.1.B3 IgG (antibody, V domains shown)
# VH: B9 VH
# VL: B9 VL with V86D, A90G, S91T, A94D, G98A
# B11: 40633p1.2.C3 IgG (antibody, V domains shown)
# VH: B9 VH with G111E
# VL: B9 VL with T26N, I29V, R31G, E32N, S33Y, Y35S, T51R, I52N, D53S
# B12: 40633p1.1.G11 IgG (antibody, V domains shown)
# VH: B9 VH with A50V, K58E, L86P, A106G
# VL: B9 VL with I29V, R31D, E32R, S33Y, T51L, I52D, V86D
# B13: 40633p1.2.A10 IgG (antibody, V domains shown)
# VH: B9 VH with A50V, K58E, A106G
# VL: B9 VL with I29V, R31D, E32R, S33Y, T51L, I52D, V86D
# B14: 40633p1.1.G5 IgG (antibody, V domains shown)
# VH: B9 VH with T28I, S30N, A40P, N77T, A106G
# VL: QSVLTQPPSASGTPGQRVTISCSGSWSNIGSYNSHWYQKLPGTAPKLLIYTTDRRPSGVPDRFSGSKSGTSASLAISGLQSEDEADYYCGTWDDSLNVWVFGGGTKLTVL
# B15: 40633p1.1.E3 IgG (antibody, V domains shown)
# VH: B9 VH
# VL: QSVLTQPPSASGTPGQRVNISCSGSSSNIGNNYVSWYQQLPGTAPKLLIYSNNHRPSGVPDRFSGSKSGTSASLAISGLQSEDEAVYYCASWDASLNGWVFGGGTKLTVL
# B16: 40579p1.C2 IgG (antibody, V domains shown)
# VH: EVQLLESGGDLVQPGGSLRLSCAASGFNFSSYWMSWVRQAPGKGLEWVSGISISYGGNAYYADSVKGRFTVSRDNSKNTLYLQMNSLRAEDTAVYYCGRDRSPYQYRSMDVWGQGTTVTVSS
# VL: EIVLTQSPATLSVSPGERATFSCRASQTIGNKLAWYQQKPGQAPRLLIFSASTRATDIPDRFSGSGSGTDFTLTISSLQSEDFAVYYCQQYNNWPPLTFGGGTKVEIK
# B17: 40579p1.H7 IgG (antibody, V domains shown)
# VH: B16 VH
# VL: EIVLTQSPGTLSLSPGERATLSCRASQSIRSDLAWYQQKPGQAPRLLIYGASSRATGIPARFSGSGSGTEFTLTISSLQSEDFAVYYCQQYNNWPPLTFGGGTKVEIK
# B18: 40579p1.G1 IgG (antibody, V domains shown)
# VH: B16 VH with D10G
# VL: B17 VL
# B19: 40579p1.D1 IgG (antibody, V domains shown)
# VH: B16 VH with D10G, N28T, S31D, W33Y, G50S, N58T, A59T, V71I, G98A, Y106C
# VL: B17 VL with T10S, I29V, R30N, G50A
# B20: 40579p1.D8 IgG (antibody, V domains shown)
# VH: B16 VH with D10G, N28T, S31D, W33Y, G50S, N58T, A59T, V71I, G98A, Y106C
# VL: B17 VL with G50N, A51T, S52V, S53T, I58V, A60D, N93S
# B21: 40579p1.F7 IgG (antibody, V domains shown)
# VH: B16 VH with D10G, N28T, S31D, W33Y
# VL: B17 VL with S22T, I29V, R30G, S31D, D32F, S53T, T56A, S63R, E70D, N92K
# Biological target: T1, B7-H3 on CHO-K1 cells stably …
# Experiment: cell-based or functional assay
"ADCC reporter assay, EC50 Value, CHOK1/B7-H3 cells [µg/mL]","ADCC reporter assay, Max RLU, CHOK1/B7-H3 cells [RLU]",Binder
0.0214,519000,B1
0.0119,656000,B2
0.0412,798000,B3
0.0419,656000,B4
0.0216,676000,B5
0.0173,719000,B6
0.0194,676000,B7
~1.56,94400,B8
~0.0125,634000,B9
0.0227,680000,B10
0.402,490000,B11
0.0344,725000,B12
0.0471,762000,B13
0.18,452000,B14
0.135,625000,B15
0.0116,843000,B16
0.0126,833000,B17
0.0115,806000,B18
0.274,744000,B19
0.075,728000,B20
0.0124,641000,B21
